{
  "source": "paper PMC3509593",
  "about": "“Role of Key Residues at the Flavin Mononucleotide (FMN):Adenylyltransferase Catalytic Site of the Bifunctional Riboflavin Kinase/Flavin Adenine Dinucleotide (FAD) Synthetase from Corynebacterium ammoniagenes” (International Journal of Molecular Sciences, 2012)",
  "molecules": {"B1": {"name": "WT: wild-type FAD synthetase from Corynebacterium ammoniagenes (CaFADS), over-expressed in E. coli (protein)", "chain": "MDIWYGTAAVPKDLDNSAVTIGVFDGVHRGHQKLINATVEKAREVGAKAIMVTFDPHPVSVFLPRRAPLGITTLAERFALAESFGIDGVLVIDFTRELSGTSPEKYVEFLLEDTLHASHVVVGANFTFGENAAGTADSLRQICQSRLTVDVIDLLDDEGVRISSTTVREFLSEGDVARANWALGRHFYVTGPVVRGAGRGGKELGFPTANQYFHDTVALPADGVYAGWLTILPTEAPVSGNMEPEVAYAAAISVGTNPTFGDEQRSVESFVLDRDADLYGHDVKVEFVDHVRAMEKFDSVEQLLEVMAKDVQKTRTLLAQDVQAHKMAPETYFLQAES"}},
  "key": {"[1]": {"experiment": "Thermal denaturation by differential scanning calorimetry (DSC)", "format": "physicochemical", "settings": "20 mM PIPES, 10 mM MgCl2, pH 7.0", "procedure": "Thermal stability was determined with a VP-DSC microcalorimeter (MicroCal LLC, Northampton, MA, USA). Protein samples and reference solutions were degassed and carefully loaded into the cells to avoid bubble formation. The baseline of the instrument was routinely recorded before the experiments with both cells filled with buffer. […] Errors in the Tm,app data are within ±0.3–0.5 °C."}, "CaFADS [2]": {"test_system": "CaFADS", "settings": "25 °C; for Kd: 20 mM PIPES pH 7.0", "procedure": "Measurements were carried out using a high precision VP-ITC (MicroCal LLC, Northampton, MA, USA) following the procedure described previously. Typically, 200 μM FAD or FMN and 300 μM ATP solutions were used to titrate ~20 μM CaFADS. Ligand and CaFADS were dissolved in 20 mM PIPES, pH 7.0, at the indicated MgCl2 concentration. Control titrations were performed by injecting ligand into buffer solution. The association constant, the enthalpy change (ΔH) and the stoichiometry, or their average values, were obtained through non-linear regression of the experimental data to a home derived model for one or two independent binding sites implemented in Origin 7.0 (OriginLab Corporation, Northampton, MA, 2002) (see Supplementary Material). The Kd, the free energy change (ΔG), and the entropy change (ΔS) were obtained from basic thermodynamic relationships. Experiments were performed in duplicate or triplicate.\nThe association constant (Ka), the enthalpy change (ΔH) and the stoichiometry (N), or their average values, were obtained through non-linear regression of the experimental data to a model for one or two independent binding sites implemented in Origin 7.0 (OriginLab Corporation, Northampton, MA, USA, 2002).\nThe nominal protein concentration was normalised by a factor n (nP0, instead of P0) accounting for either the stoichiometry or the fraction of active (binding-competent) protein."}, "CaFADS [3]": {"target": "T1, CaFADS (Corynebacterium ammoniagenes, UniProt Q59263)", "T1 construct": "made in house; host or cells: E. coli (pET28a-CaFADS plasmid)", "settings": "RFK activity, cited from earlier work"}, "CaFADS [4]": {"test_system": "CaFADS", "settings": "FADpp activity; 37 °C, 20 mM PIPES, 10 mM MgCl2, pH 7.0", "description": "The CaFADS FMNAT and FADpp activities were fluorimetrically measured using a continuous assay. […] Measurements were performed in a Cary Eclipse spectrophotofluorimeter with excitation and emission wavelengths at 420 nm and 530 nm, respectively. FAD and FMN fluorescence were individually calibrated using standard solutions. The rate of FAD formation was calculated from the rate of fluorescence decrease (ΔF/Δt), measured as the tangent to the initial part of the experimental curve by applying the equation:\nwhere ΔF is the decrease in the value of the fluorescence expressed in arbitrary units, Δt is the measurement of reaction time expressed in per minute, and KFMN and KFAD are the FMN and FAD fluorescent rate constants expressed in per micromolar [37]. The kinetic data obtained for one substrate at saturated concentrations of the second one were interpreted using the Michaelis-Menten kinetic model."}, "CaFADS [5]": {"target": "T1, CaFADS", "set-up": "method as in PMID 22892871", "settings": "FMNAT activity; 37 °C, 20 mM PIPES, 10 mM MgCl2, pH 7.0; cited from earlier work"}, "[6]": {"settings": "ligand ATP, 10 mM Mg^2+, pH 7.0"}, "[7]": {"settings": "ligand FAD, 10 mM Mg^2+, pH 7.0"}, "[8]": {"settings": "ligand FMN, 10 mM Mg^2+, pH 7.0"}},
  "note": "Read-outs that look alike come from different tables or passages of the source.",
  "data": [
    {"molecule": "B1", "values": [
      {"measurement": "Tm,app", "setting": "[1]", "value": 42.5, "unit": "°C"},
      {"measurement": "ΔG FADS:ATP", "setting": "CaFADS [2]; ligand ATP, 0 mM Mg^2+, pH 7.0", "value": -7.2, "unit": "kcal/mol"},
      {"measurement": "ΔH FADS:ATP", "setting": "CaFADS [2]; ligand ATP, 0 mM Mg^2+, pH 7.0", "value": -31, "unit": "kcal/mol"},
      {"measurement": "−TΔS FADS:ATP", "setting": "CaFADS [2]; ligand ATP, 0 mM Mg^2+, pH 7.0", "value": 24, "unit": "kcal/mol"},
      {"measurement": "ΔG FADS:ATP", "setting": "CaFADS [2]; [6]", "value": -6.2, "unit": "kcal/mol"},
      {"measurement": "ΔH FADS:ATP", "setting": "CaFADS [2]; [6]", "value": -30, "unit": "kcal/mol"},
      {"measurement": "−TΔS FADS:ATP", "setting": "CaFADS [2]; [6]", "value": 23, "unit": "kcal/mol"},
      {"measurement": "ΔG FADS:FAD", "setting": "CaFADS [2]; [7]", "value": -8.4, "unit": "kcal/mol"},
      {"measurement": "ΔH FADS:FAD", "setting": "CaFADS [2]; [7]", "value": -26, "unit": "kcal/mol"},
      {"measurement": "−TΔS FADS:FAD", "setting": "CaFADS [2]; [7]", "value": 18, "unit": "kcal/mol"},
      {"measurement": "ΔG FADS:FMN", "setting": "CaFADS [2]; [8]", "value": -7.0, "unit": "kcal/mol"},
      {"measurement": "ΔH FADS:FMN", "setting": "CaFADS [2]; [8]", "value": -35, "unit": "kcal/mol"},
      {"measurement": "−TΔS FADS:FMN", "setting": "CaFADS [2]; [8]", "value": 28, "unit": "kcal/mol"},
      {"measurement": "Kd", "setting": "CaFADS [2]; read-out: Kd FADS:ATP (average, Kd,av^ATP:Mg, for two ATP:Mg^2+ binding sites), ligand ATP, 10 mM Mg^2+", "value": 30, "unit": "µM"},
      {"measurement": "Kd", "setting": "CaFADS [2]; read-out: Kd FADS:ATP, ligand ATP, 0 mM Mg^2+", "value": 5.5, "unit": "µM"},
      {"measurement": "Kd", "setting": "CaFADS [2]; read-out: Kd FADS:FAD, ligand FAD, 10 mM Mg^2+", "value": 0.7, "unit": "µM"},
      {"measurement": "Kd", "setting": "CaFADS [2]; read-out: Kd FADS:FMN, ligand FMN, 10 mM Mg^2+", "value": 7.8, "unit": "µM"},
      {"measurement": "kcat (apparent)", "setting": "CaFADS [3]; saturated ATP, varying RF, 37 °C, 0.8 mM MgCl2, pH 7.0", "value": 5.02, "unit": "s⁻¹"},
      {"measurement": "kcat (apparent)", "setting": "CaFADS [3]; varying ATP, RF concentration exhibiting ~80% maximal activity", "value": 1.13, "unit": "s⁻¹"},
      {"measurement": "kcat", "setting": "CaFADS [4]", "value": 0.217, "unit": "s⁻¹"},
      {"measurement": "kcat", "setting": "CaFADS [5]", "value": 0.283, "unit": "s⁻¹"}
    ]}
  ]
}
